In patent US20190002503A1 (published 2019):
Starred links: 1 amine or outer side, 2 acyl side, 3 side chain; linkers in the order of their positions; H or OH if unused. Positions of bridges follow the written chain, without caps; N, C: chain ends. Groups on a side chain read outwards from the residue. *: point of attachment. γGlu = O=C(O)[C@H](CCC(=O)[*:2])N[*:1]; Palmitoyl = CCCCCCCCCCCCCCCC(=O)*; Isovaleryl = CC(C)CC(=O)*

T1: human ferroportin (SLC40A1) fused in frame with GFP, stably expressed in HEK293 cells (human, UniProt Q9NP59 1-571)
T1 sequence (looked up): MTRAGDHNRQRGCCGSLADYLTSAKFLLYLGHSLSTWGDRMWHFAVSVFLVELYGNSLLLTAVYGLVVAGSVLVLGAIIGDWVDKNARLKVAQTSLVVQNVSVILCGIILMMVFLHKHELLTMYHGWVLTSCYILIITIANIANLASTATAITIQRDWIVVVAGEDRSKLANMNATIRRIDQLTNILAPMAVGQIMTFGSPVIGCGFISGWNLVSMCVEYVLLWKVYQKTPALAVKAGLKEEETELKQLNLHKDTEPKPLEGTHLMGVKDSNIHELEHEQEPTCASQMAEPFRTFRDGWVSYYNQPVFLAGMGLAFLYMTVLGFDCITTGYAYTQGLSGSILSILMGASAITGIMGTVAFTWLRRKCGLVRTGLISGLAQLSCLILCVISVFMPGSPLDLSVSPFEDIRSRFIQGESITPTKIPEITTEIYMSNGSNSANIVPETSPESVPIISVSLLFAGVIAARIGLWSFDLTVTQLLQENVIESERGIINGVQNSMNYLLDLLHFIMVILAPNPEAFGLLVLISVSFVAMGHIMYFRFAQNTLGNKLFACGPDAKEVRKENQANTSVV


The binders below were run against T1, human ferroportin (SLC40A1) fused in … (assay: cell-based or functional assay).

| Potency EC50 (nM), ferroportin degradation in ferroportin-GFP HEK293 cells [nM] | Binder |
| --- | --- |
| > 10000 | FICIPFHTD (all residues are D-amino acids (retro inverse of mini-hepcidin); C-terminal NH2 (amide)) [RI-Mini Hepcidin] |
| 712 | H-DTHFPICIF-NH2 [Mini-Hepcidin 1-9] |

Target: T1, human ferroportin (SLC40A1) fused in …
Assay: cell-based or functional assay
Remark: another data set of the same source

| HEK-GFP cell based assay: potency EC50 (loss of ferroportin-GFP fluorescence) [nM] | Binder |
| --- | --- |
| 14 | DTHFPCIKFKPRSKGCK (N-terminal isovaleric acid; Lys 10 carries Ac (acetyl); C-terminal NH2 (amide)) [Compound 25] |
| 30 | DTHFPCIKFKPRSKGCK (N-terminal isovaleric acid; Lys 10 carries PEG11-Myristic acid; C-terminal NH2 (amide)) [Compound 19] |
| 11 | DTHFPCIKFKPRSKXCK (N-terminal isovaleric acid; Lys 10 carries IsoGlu-Palm; Sar (sarcosine) at 15; C-terminal NH2 (amide)) [Compound 6] |
| 29 | DTHFPCIKFKPRSKGCK (N-terminal isovaleric acid; Lys 10 carries isoGlu-Bioitin (biotin); C-terminal NH2 (amide)) [Compound 14] |
| 32 | DTHFPCIKFKPRSKGCK (N-terminal isovaleric acid; Lys 10 carries PEG8; C-terminal NH2 (amide)) [Compound 21] |
| 26 | DTHFPCIKFKPRSKGCK (N-terminal isovaleric acid; Lys 10 carries isoGlu-Isovaleric acid; C-terminal NH2 (amide)) [Compound 15] |
| 18 | DTHFPCIKFKPRSKGCK (N-terminal isovaleric acid; Lys 10 carries Ahx-Palm; C-terminal NH2 (amide)) [Compound 22] |
| 36 | DTHFPCIKFKPRSKGCK (N-terminal isovaleric acid; Lys 10 carries PEG2-Palm; C-terminal NH2 (amide)) [Compound 16] |
| 30 | DTHFPCIKFKPRSKGCK (N-terminal isovaleric acid; Lys 10 carries PEG11-Palm; C-terminal NH2 (amide)) [Compound 17] |
| 11 | DTHFPCIKFKPRSKGC (N-terminal isovaleric acid; Lys 10 carries IsoGlu-Palm; C-terminal NH2 (amide)) [Compound 9] |
| 14 | DTHFPCIKFKPRSKGCK (N-terminal isovaleric acid; Lys 10 carries isoGlu-Lauric acid; C-terminal NH2 (amide)) [Compound 12] |
| 10 | DTHFPCIKFKPRSKXCK (N-terminal isovaleric acid; Lys 10 carries Ahx-Palm; Sar (sarcosine) at 15; C-terminal NH2 (amide)) [Compound 24] |
| 10 | DTHFPCIKFKPRSKGCK (N-terminal isovaleric acid; Lys 10 carries isoGlu-Myristic acid; C-terminal NH2 (amide)) [Compound 13] |
| 10 | DTHFPCIKFKPRSKXC (N-terminal isovaleric acid; Lys 10 carries IsoGlu-Palm; Sar (sarcosine) at 15; C-terminal NH2 (amide)) [Compound 10] |
| 22 | Isovaleryl-DTHFPCKKFK([γGlu-Palmitoyl])PRSKGCK-NH2 (disulfide 6-16 (inferred)) [Compound 11] |
| 19 | DTHFPCIKFKPRSKGCK (N-terminal isovaleric acid; Lys 10 carries Palm; C-terminal NH2 (amide)) [Compound 20] |
| 36 | DTHFPCIKFKPRSKGCK (N-terminal isovaleric acid; Lys 10 carries PEG11-Lauric acid; C-terminal NH2 (amide)) [Compound 18] |

Target: T1, human ferroportin (SLC40A1) fused in …
Assay: cell-based or functional assay
Remark: another data set of the same source

| HEK-GFP cell based assay: potency EC50 (loss of ferroportin-GFP fluorescence) [nM] | Binder |
| --- | --- |
| 13 | DTHFPCIKFXX (N-terminal isovaleric acid on each subunit; the two subunits are joined by IDA-[βala] that carries Peg11-Palm) [Compound 32] |
| 18 | Isovaleryl-DTHFPCIRFK([γGlu-Octanoic acid])-NH2 (also: dimer: two subunits joined at their C-termini through the Lys linker) [Compound 30] |
| 8 | DTHFPCIKFXX (N-terminal isovaleric acid on each subunit; the two subunits are joined by IDA-[βala] that carries Peg2-Palm) [Compound 31] |
